Legend:
HLA-A*26:03 = experiment: IEDB peptide-MHC binding, purified MHC/competitive/fluorescence; filed as Kd, often an IC50 or EC50 that approximates it; ≥ and ≤ were set here for values at or beyond the usual limits of such assays; settings: source organism: Entamoeba histolytica HM-1:IMSS
HLA-A*68:02 = experiment: as above; settings: source organism: Francisella tularensis subsp. tularensis FSC198
HLA-B*39:01 = experiment: as above
HLA-B*15:09 = experiment: as above
HLA-A*26:02 = experiment: IEDB peptide-MHC binding, purified MHC/direct/fluorescence; filed as Kd, often an IC50 or EC50 that approximates it; ≥ and ≤ were set here for values at or beyond the usual limits of such assays
HLA-B*18:01 = experiment: as above
HLA-A*01:01 = experiment: as above
HLA-B*15:17 [1] = experiment: as above; settings: source organism: Francisella tularensis subsp. holarctica LVS
HLA-A*02:01 = experiment: as above
HLA-B*40:01 = experiment: as above
HLA-B*48:01 = experiment: as above
HLA-A*69:01 = experiment: as above
HLA-A*31:01 = experiment: as above
HLA-B*58:01 = experiment: as above
HLA-B*57:01 = experiment: as above
HLA-A*11:01 [2] = experiment: as above; settings: source organism: Francisella tularensis subsp. holarctica LVS
HLA-B*27:05 = experiment: as above
HLA-B*07:02 = experiment: as above
HLA-B*08:01 = experiment: as above
HLA-B*15:17 [3] = experiment: IEDB peptide-MHC binding, purified MHC/competitive/fluorescence; filed as Kd, often an IC50 or EC50 that approximates it; ≥ and ≤ were set here for values at or beyond the usual limits of such assays; settings: source organism: Vaccinia virus
HLA-B*15:01 = experiment: as above; settings: source organism: Vaccinia virus
HLA-A*11:01 [4] = experiment: as above; settings: source organism: Vaccinia virus
HLA-B*51:01 = experiment: IEDB peptide-MHC binding, purified MHC/direct/fluorescence; filed as Kd, often an IC50 or EC50 that approximates it; ≥ and ≤ were set here for values at or beyond the usual limits of such assays; settings: source organism: Camelpox virus M-96
HLA-A*03:01 = experiment: as above; settings: source organism: Variola virus
HLA-B*46:01 = experiment: as above; settings: source organism: Camelpox virus M-96
[5] = source organism: Francisella tularensis subsp. tularensis FSC198
[6] = source organism: Francisella tularensis subsp. tularensis FSC033
[7] = source organism: Francisella tularensis subsp. holarctica LVS
[8] = source organism: Vaccinia virus
[9] = source organism: Camelpox virus M-96

PTIPEQKCM
Kd (HLA-A*26:03): ≥ 20 µM

REMGIVDLL
Kd (HLA-A*68:02): ≥ 20 µM
Kd (HLA-B*39:01; [5]): 4 µM
Kd (HLA-B*15:09; [5]): ≥ 20 µM
Kd (HLA-A*26:02; [6]): ≥ 20 µM
Kd (HLA-B*18:01; [7]): 0.514 µM
Kd (HLA-A*01:01; [7]): ≥ 20 µM
Kd (HLA-B*15:17 [1]): ≥ 20 µM
Kd (HLA-A*02:01; [7]): ≥ 20 µM
Kd (HLA-B*40:01; [7]): 0.0014 µM
Kd (HLA-B*48:01; [7]): 0.0932 µM
Kd (HLA-A*69:01; [7]): ≥ 20 µM
Kd (HLA-A*31:01; [7]): ≥ 20 µM
Kd (HLA-B*58:01; [7]): ≥ 20 µM
Kd (HLA-B*57:01; [7]): ≥ 20 µM
Kd (HLA-A*11:01 [2]): ≥ 20 µM
Kd (HLA-B*27:05; [7]): ≥ 20 µM
Kd (HLA-B*07:02; [7]): ≥ 20 µM
Kd (HLA-B*08:01; [6]): ≥ 20 µM

RVATENIAV
Kd (HLA-B*15:17 [3]): ≥ 20 µM
Kd (HLA-B*15:01): 0.445 µM
Kd (HLA-B*39:01; [8]): 2.81 µM
Kd (HLA-B*15:09; [8]): ≥ 20 µM
Kd (HLA-A*11:01 [4]): ≥ 20 µM
Kd (HLA-B*18:01; [9]): ≥ 20 µM
Kd (HLA-A*01:01; [9]): ≥ 20 µM
Kd (HLA-A*02:01; [9]): 0.0227 µM
Kd (HLA-B*40:01; [9]): ≥ 20 µM
Kd (HLA-B*48:01; [9]): ≥ 20 µM
Kd (HLA-B*51:01): ≥ 20 µM
Kd (HLA-A*69:01; [9]): 0.156 µM
Kd (HLA-A*31:01; [9]): ≥ 20 µM
Kd (HLA-B*58:01; [9]): ≥ 20 µM
Kd (HLA-B*57:01; [9]): ≥ 20 µM
Kd (HLA-A*03:01): ≥ 20 µM
Kd (HLA-B*46:01): ≥ 20 µM
Kd (HLA-B*27:05; [9]): ≥ 20 µM
Kd (HLA-B*07:02; [9]): 0.226 µM
Kd (HLA-B*08:01; source organism: Variola virus): ≥ 20 µM

STPAILHIM
Kd (HLA-A*26:02; source organism: Listeria monocytogenes serotype 4b str. H7858): 0.003 µM
